The source of these data is patent US20180105569A1 (INDIANA UNIVERSITY RESEARCH AND TECHNOLOGY, published 2018).

Read-outs that look alike come from different tables or passages of the source. Numbered stars: 1 amine (or outer) side, 2 acyl side, 3 side chain; on linkers, the order of the positions; unused ones are H or OH. Square brackets hold non-standard residues; d marks the D form. Side chains are listed from the residue outwards. Ends that are not written are not given here. * marks the point of attachment. β2His = Beta2-His (beta2-homo amino acid form of His; γGlu = O=C(O)[C@H](CCC(=O)[*:2])N[*:1]; Desaminohistidyl = O=C(CCc1c[nH]cn1)*; Desaminotyrosyl = O=C(CCc1ccc(O)cc1)*; Palmitoyl = CCCCCCCCCCCCCCCC(=O)*; dthioAla = not defined here; thioAla = not defined here; Orn = NCCC[C@H](N)C(=O)O; Aib = CC(C)(N)C(=O)O; Sar = CNCC(=O)O

Common to all, as to assay: cell-based or functional assay
Assay [1] addresses T1, GIP receptor (UniProt P48546 22-466, limits assumed).
T1 sequence (looked up): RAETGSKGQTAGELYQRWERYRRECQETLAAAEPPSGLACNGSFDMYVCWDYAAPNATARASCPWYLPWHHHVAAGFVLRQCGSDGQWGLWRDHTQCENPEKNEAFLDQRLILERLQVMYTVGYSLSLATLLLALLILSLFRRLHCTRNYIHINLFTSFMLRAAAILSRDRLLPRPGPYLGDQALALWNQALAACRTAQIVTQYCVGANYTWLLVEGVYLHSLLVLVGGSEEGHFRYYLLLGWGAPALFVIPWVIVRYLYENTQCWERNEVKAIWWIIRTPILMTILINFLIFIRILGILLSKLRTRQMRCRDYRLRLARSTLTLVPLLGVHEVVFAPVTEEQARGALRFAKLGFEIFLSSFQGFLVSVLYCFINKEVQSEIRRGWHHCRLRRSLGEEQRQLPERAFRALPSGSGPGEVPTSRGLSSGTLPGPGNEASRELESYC

A further assay concerns the target GLP-1 receptor (UniProt P43220 24-463, limits assumed).
Assay [2] has as its target T2, glucagon receptor (UniProt P47871 26-477, limits assumed).
The target of assay [3] is T1, GIP receptor. This is another data set of the same source.
The target in assay [4] is T2, glucagon receptor. The source holds these as a separate data set.

T2 sequence (P47871 26-477 limits assumed): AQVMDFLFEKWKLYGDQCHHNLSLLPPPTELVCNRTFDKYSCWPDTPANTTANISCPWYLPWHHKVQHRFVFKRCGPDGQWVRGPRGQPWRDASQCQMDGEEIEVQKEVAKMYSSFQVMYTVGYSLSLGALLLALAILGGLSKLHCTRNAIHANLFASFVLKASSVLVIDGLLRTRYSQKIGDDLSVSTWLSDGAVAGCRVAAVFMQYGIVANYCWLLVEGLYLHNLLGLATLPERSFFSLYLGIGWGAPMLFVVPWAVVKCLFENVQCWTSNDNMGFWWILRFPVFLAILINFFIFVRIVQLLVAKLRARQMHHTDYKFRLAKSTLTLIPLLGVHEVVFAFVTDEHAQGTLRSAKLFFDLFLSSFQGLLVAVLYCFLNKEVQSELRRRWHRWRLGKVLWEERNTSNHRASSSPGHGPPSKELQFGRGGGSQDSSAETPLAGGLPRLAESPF

Regarding H[Sar]QGTFTSDK([γGlu-Palmitoyl])SKYLDERAAQDFVQWLLEGGPSSGAPPPS-NH2 [peptide of SEQ ID NO: 28], in the assay with GIP receptor [1], the midpoint of the response, the EC50 at GIP Receptor (cAMP luciferase reporter, HEK293), lay at 0.081 nM. Moreover, the “EC50 at GLP-1 Receptor (cAMP luciferase reporter, HEK293)” value (shortened to “EC50 at GLP-1 Receptor”) in the assay with GLP-1 receptor is 2 pM. In the assay with glucagon receptor [2], a half-maximal response (EC50 at Glucagon Receptor (cAMP luciferase reporter, HEK293)) required 0.022 nM.
The corresponding values for Ac-[dY]AQGTFTSDK([γGlu-Palmitoyl])SKYLDERAAQDFVQWLLEGGPSSGAPPPS-NH2 [peptide of SEQ ID NO: 12] are 0.002 nM, 3 pM and 0.007 nM.
The corresponding values for H[Aib]QGTFTSDK([γGlu-Palmitoyl])SKYLDERAAQDFVQWLLEGGPSSGAPPPS-NH2 [peptide of SEQ ID NO: 37] are 0.003 nM, 6 pM and 0.009 nM.
The corresponding values for Ac-[Orn]AQGTFTSDK([γGlu-Palmitoyl])SKYLDERAAQDFVQWLLEGGPSSGAPPPS-NH2 [peptide of SEQ ID NO: 30] are 0.183 nM, 2 pM and 0.635 nM.
Regarding [Desaminohistidyl]GQGTFTSDK([γGlu-Palmitoyl])SKYLDERAAQDFVQWLLEGGPSSGAPPPS-NH2 [peptide of SEQ ID NO: 31], the 50% effective concentration (EC50) at GIP Receptor (cAMP luciferase reporter, HEK293) in the assay with GIP receptor [1] was found to be 0.226 nM. For the same molecule, the “EC50 at GLP-1 Receptor” value with GLP-1 receptor stood at 3 pM. Moreover, a half-maximal effect with glucagon receptor [2] (EC50 at Glucagon Receptor (cAMP luciferase reporter, HEK293)) was put at 0.022 nM.
The corresponding values for Ac-QGQGTFTSDK([γGlu-Palmitoyl])SKYLDERAAQDFVQWLLEGGPSSGAPPPS-NH2 [peptide of SEQ ID NO: 34] are 0.436 nM, 611 pM and 0.163 nM.
Turning to [dH]AQGTFTSDK([γGlu-Palmitoyl])SKYLDERAAQDFVQWLLEGGPSSGAPPPS-NH2 [peptide of SEQ ID NO: 16], the “EC50 at GIP Receptor (cAMP luciferase reporter, HEK293)” value (from here on “EC50 at GIP Receptor”) with GIP receptor [1] amounted to 0.01 nM. For the same molecule, in the assay with GLP-1 receptor, it took 2 pM to reach a half-maximal effect (EC50 at GLP-1 Receptor (cAMP luciferase reporter, HEK293)). For the same molecule, in the assay with glucagon receptor [2], the “EC50 at Glucagon Receptor (cAMP luciferase reporter, HEK293)” value (from here on “EC50 at Glucagon Receptor”) stood at 0.01 nM.
As for Ac-[dH]AQGTFTSDK([γGlu-Palmitoyl])SKYLDERAAQDFVQWLLEGGPSSGAPPPS-NH2 [peptide of SEQ ID NO: 13], the “EC50 at GIP Receptor” value in the assay with GIP receptor [1] stood at 0.004 nM. A half-maximal response with GLP-1 receptor (EC50 at GLP-1 Receptor (cAMP luciferase reporter, HEK293)) required 4 pM. Further, the midpoint of the response with glucagon receptor [2], the EC50 at Glucagon Receptor (cAMP luciferase reporter, HEK293), lay at 0.002 nM.
For [β2His]AQGTFTSDK([γGlu-Palmitoyl])SKYLDERAAQDFVQWLLEGGPSSGAPPPS-NH2 [peptide of SEQ ID NO: 25] the same measures were 0.064 nM, 3 pM and 0.024 nM.

B1: peptide of SEQ ID NO: 26 (peptide)
peptide: XAQGTFTSDKSKYLDERAAQDFVQWLLEGGPSSGAPPPS
modifications: position 1 His; position 2 β-Ala; C-terminal amide; other non-coded or acylated residues as in the sequence listing
Turning to B1, a half-maximal response with GIP receptor [1] (EC50 at GIP Receptor (cAMP luciferase reporter, HEK293)) required 0.071 nM. In addition, the “EC50 at GLP-1 Receptor” value with GLP-1 receptor was 2 pM. Also, in the assay with glucagon receptor [2], the “EC50 at Glucagon Receptor” value is 0.095 nM.

B2: peptide of SEQ ID NO: 145 (peptide)
peptide: XAEGTFTSDKSKYLDERAAQDFVQWLLEGGPSSGAPPPS
modifications: position 1 Des-NH2-Tyr (desamino L-Tyr); position 2 Ala; C-terminal amide; other non-coded or acylated residues as in the sequence listing
As to B2, a half-maximal response with GIP receptor [3] (EC50 at GIP Receptor (cAMP luciferase reporter, HEK293)) required 0.003 nM. Moreover, the concentration giving a half-maximal response (EC50) at Glucagon Receptor (cAMP luciferase reporter, HEK293) with glucagon receptor [4] amounted to 3.73 nM.
Regarding Ac-[thioAla]AQGTFTSDK([γGlu-Palmitoyl])SKYLDERAAQDFVQWLLEGGPSSGAPPPS-NH2 (reading uncertain) [peptide of SEQ ID NO: 21], in the assay with GIP receptor [1], the “EC50 at GIP Receptor” value came out at 0.04 nM. Besides, in the assay with GLP-1 receptor, the “EC50 at GLP-1 Receptor” value came to 26 pM. In addition, in the assay with glucagon receptor [2], the “EC50 at Glucagon Receptor” value came out at 0.006 nM.
For [Desaminohistidyl]AQGTFTSDK([γGlu-Palmitoyl])SKYLDERAAQDFVQWLLEGGPSSGAPPPS-NH2 [peptide of SEQ ID NO: 22] the same measures were 0.041 nM, 3 pM and 0.017 nM.
The corresponding values for [dH]GQGTFTSDK([γGlu-Palmitoyl])SKYLDERAAQDFVQWLLEGGPSSGAPPPS-NH2 [peptide of SEQ ID NO: 23] are 0.043 nM, 3 pM and 0.015 nM.
For [Desaminotyrosyl]AQGTFTSDK([γGlu-Palmitoyl])SKYLDERAAQDFVQWLLEGGPSSGAPPPS-NH2 [peptide of SEQ ID NO: 11] the same measures were 0.002 nM, 2 pM and 0.016 nM.
As for [thioAla]GQGTFTSDK([γGlu-Palmitoyl])SKYLDERAAQDFVQWLLEGGPSSGAPPPS-NH2 (reading uncertain) [peptide of SEQ ID NO: 29], it took 0.095 nM to reach a half-maximal effect with GIP receptor [1] (EC50 at GIP Receptor (cAMP luciferase reporter, HEK293)). In the assay with GLP-1 receptor, the “EC50 at GLP-1 Receptor” value is 7 pM. For the same molecule, the response in the assay with glucagon receptor [2] was half-maximal at 0.038 nM (EC50 at Glucagon Receptor (cAMP luciferase reporter, HEK293)).
The corresponding values for H[Aib]QGTFTSDK([γGlu-Palmitoyl])SKYLDERAAQDFVQWLLDGGPSSGAPPPS-NH2 [peptide of SEQ ID NO: 10] are 0.003 nM, 5 pM and 0.005 nM.
With [thioAla]PQGTFTSDK([γGlu-Palmitoyl])SKYLDERAAQDFVQWLLEGGPSSGAPPPS-NH2 (reading uncertain) [peptide of SEQ ID NO: 33], a half-maximal effect with GIP receptor [1] (EC50 at GIP Receptor (cAMP luciferase reporter, HEK293)) was put at 0.43 nM. The “EC50 at GLP-1 Receptor” value with GLP-1 receptor turned out to be 5 pM. The concentration for a half-maximal effect (EC50) at Glucagon Receptor (cAMP luciferase reporter, HEK293) with glucagon receptor [2] was 0.121 nM.
For [dY]AQGTFTSDK([γGlu-Palmitoyl])SKYLDERAAQDFVQWLLEGGPSSGAPPPS-NH2 [peptide of SEQ ID NO: 15] the same measures were 0.008 nM, 4 pM and 0.05 nM.
With Ac-YA[dQ]GTFTSDK([γGlu-Palmitoyl])SKYLDERAAQDFVQWLLEGGPSSGAPPPS-NH2 [peptide of SEQ ID NO: 158], the “EC50 at GIP Receptor” value with GIP receptor [3] turned out to be 0.069 nM.
With Ac-YAQGTFTSDK([γGlu-Palmitoyl])SKYLDERAAQDFVQWLLEGGPSSGAPPPS-NH2 [peptide of SEQ ID NO: 155], a half-maximal effect in the assay with GIP receptor [3] (EC50 at GIP Receptor (cAMP luciferase reporter, HEK293)) was put at 0.037 nM.
On to Ac-[dthioAla]AQGTFTSDK([γGlu-Palmitoyl])SKYLDERAAQDFVQWLLEGGPSSGAPPPS-NH2 (reading uncertain) [peptide of SEQ ID NO: 17], for which, in the assay with GIP receptor [1], the 50% effective concentration (EC50) at GIP Receptor (cAMP luciferase reporter, HEK293) was found to be 0.011 nM. In the assay with GLP-1 receptor, the half-maximal effective concentration (EC50) at GLP-1 Receptor (cAMP luciferase reporter, HEK293) came out at 5 pM. Moreover, the half-maximal effective concentration (EC50) at Glucagon Receptor (cAMP luciferase reporter, HEK293) in the assay with glucagon receptor [2] came to 0.008 nM.
The corresponding values for [dH]PQGTFTSDK([γGlu-Palmitoyl])SKYLDERAAQDFVQWLLEGGPSSGAPPPS-NH2 [peptide of SEQ ID NO: 27] are 0.08 nM, 3 pM and 0.034 nM.
The corresponding values for Ac-[dY]GQGTFTSDK([γGlu-Palmitoyl])SKYLDERAAQDFVQWLLEGGPSSGAPPPS-NH2 [peptide of SEQ ID NO: 14] are 0.005 nM, 22 pM and 0.005 nM.

As usually defined, the EC50 is the concentration needed to bring the measured effect to its halfway point. Low readings indicate higher potency in that assay, high ones lower potency in that assay.
